The target of experiment [1] is T1, 614.
T1 construct: lane label in panel C
As to the kind of experiment: immunoprecipitation from cell lysate (CL) with 77A, Western blot GFP [panel C]. The protocol: (§1) IP of cell extracts with 77A was followed by detection of proteins by Western blotting (WB) with an anti-GFP antibody (B). Smaller deletions were then generated for finer mapping (C), and the indicated IPs were performed from cell lysates (CL) or culture media supernatants (CM). Loading was confirmed with an a-light chain (LC) antibody. The putative binding domain for 77A is indicated on a molecular model of HSP70 representing the relevant region of the protein (D). The exact amino acids that comprise the 77A epitope were determined using alanine scanning analysis, and the results are shown in (E), and the ribbon diagram showing the primary and secondary critical sites is shown in (F).
(§2) Alanine scanning analysis was performed to identify key amino acids in HSP70 with which 77A interacts (FIG. 3E).

Experiment [2] addresses T2, 534.
T2 construct: lane label in panels A and B
As to the kind of experiment: immunoprecipitation of cell extracts with 77A, Western blot with anti-GFP [panel B]. The protocol:
as §1, §2

Experiment [3] addresses T3, ADP-HSP70 (ADP-enriched HSP70) (Homo sapiens (Human), UniProt P0DMV8 1-641).
T3 construct: also called ADP-HSP70 complexes
As to the kind of experiment: BLI, 77A on sensor. As for the experimental part:
HSP70 was expressed in SF9 cells. Affinity chromatography using resins selective for ADP or ATP-binding proteins were used to enrich bulk preparations of the correspondingly bound HSP70 recombinant protein. Protein concentrations, determined after elution, were measured so that equal concentrations could be used in subsequent assays. For BLI-based assays, antibodies and reagents were diluted out onto microwell plates and loaded into the instrument. Antibodies being tested were immobilized onto dip-and-read sensors and then observed for kinetics during binding to ATP or ADP-enriched HSP70. For ELISA, the relevant enriched HSP70 proteins were directly coated onto ELISA plate wells overnight. Test antibodies were then serially diluted across the plate wells, and detected using an appropriate secondary antibody-HRP conjugate. The plates were developed using a TMB substrate, and the O.D. stabilized using an acid stop solution.
(In general: Biolayer interferometry detects binding as a change in optical thickness at a sensor tip.)

Results on one molecule are retold here after patent US20230128075A1 (University of Texas, published 2023).

A value given as a limit tells only on which side of the number the result lay.

T1 sequence (chain, as listed by the source limits assumed): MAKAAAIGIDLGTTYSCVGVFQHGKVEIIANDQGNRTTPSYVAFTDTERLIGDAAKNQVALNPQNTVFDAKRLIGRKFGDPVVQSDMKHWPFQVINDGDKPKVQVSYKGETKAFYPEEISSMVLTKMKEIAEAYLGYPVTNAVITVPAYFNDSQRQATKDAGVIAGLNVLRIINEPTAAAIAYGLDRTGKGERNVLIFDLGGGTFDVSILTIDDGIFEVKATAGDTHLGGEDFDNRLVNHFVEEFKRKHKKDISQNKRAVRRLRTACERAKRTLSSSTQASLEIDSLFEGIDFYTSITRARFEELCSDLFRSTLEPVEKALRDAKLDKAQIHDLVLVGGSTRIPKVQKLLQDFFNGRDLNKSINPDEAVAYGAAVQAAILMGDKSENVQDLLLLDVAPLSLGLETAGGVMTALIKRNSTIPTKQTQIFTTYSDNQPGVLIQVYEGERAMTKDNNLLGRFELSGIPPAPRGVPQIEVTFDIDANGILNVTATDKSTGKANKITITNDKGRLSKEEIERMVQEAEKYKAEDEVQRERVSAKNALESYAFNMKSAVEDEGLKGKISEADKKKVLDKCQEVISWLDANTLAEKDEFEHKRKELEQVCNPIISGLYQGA
T2 sequence (chain, as listed by the source limits assumed): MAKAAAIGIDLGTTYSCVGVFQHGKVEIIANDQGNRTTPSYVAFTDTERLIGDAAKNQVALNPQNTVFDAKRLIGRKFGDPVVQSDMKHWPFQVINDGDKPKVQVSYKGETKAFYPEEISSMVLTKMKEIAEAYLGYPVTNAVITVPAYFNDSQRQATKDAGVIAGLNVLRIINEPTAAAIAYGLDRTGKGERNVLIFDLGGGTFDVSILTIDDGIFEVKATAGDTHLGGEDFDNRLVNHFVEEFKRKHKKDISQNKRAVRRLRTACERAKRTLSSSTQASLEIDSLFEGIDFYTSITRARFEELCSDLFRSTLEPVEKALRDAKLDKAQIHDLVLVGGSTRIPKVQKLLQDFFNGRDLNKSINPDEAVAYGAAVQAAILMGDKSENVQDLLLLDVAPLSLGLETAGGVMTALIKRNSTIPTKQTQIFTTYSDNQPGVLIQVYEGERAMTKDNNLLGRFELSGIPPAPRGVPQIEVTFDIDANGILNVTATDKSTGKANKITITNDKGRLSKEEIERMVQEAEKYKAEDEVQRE
T3 sequence (P0DMV8 whole entry): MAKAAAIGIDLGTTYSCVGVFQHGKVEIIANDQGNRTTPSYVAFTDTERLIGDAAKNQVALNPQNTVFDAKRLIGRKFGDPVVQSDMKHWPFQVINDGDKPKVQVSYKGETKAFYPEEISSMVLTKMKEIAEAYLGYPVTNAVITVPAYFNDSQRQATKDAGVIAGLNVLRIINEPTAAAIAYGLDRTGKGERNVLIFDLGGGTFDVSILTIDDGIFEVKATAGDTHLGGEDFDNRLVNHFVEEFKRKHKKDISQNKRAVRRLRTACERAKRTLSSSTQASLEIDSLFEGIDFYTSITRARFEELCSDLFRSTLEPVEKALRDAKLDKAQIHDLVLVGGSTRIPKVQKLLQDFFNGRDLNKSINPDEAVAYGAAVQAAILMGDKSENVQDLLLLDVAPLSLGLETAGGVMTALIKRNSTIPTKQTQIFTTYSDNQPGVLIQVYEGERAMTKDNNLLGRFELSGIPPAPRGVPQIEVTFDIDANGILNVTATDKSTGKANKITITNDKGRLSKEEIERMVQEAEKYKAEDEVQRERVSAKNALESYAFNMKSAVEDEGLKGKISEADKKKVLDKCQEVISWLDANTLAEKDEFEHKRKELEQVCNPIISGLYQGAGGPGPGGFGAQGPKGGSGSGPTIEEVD

B1: 77A antibody (clone 77A, murine anti-HSP70 mAb) (antibody, V domains shown)
VH: QIQLVQSGPELKKPGETVKISCKASGYTFTNYGMNWVKQAPGKGLKWMGWINTYTGEPTYADDFKGRFAFSLETSATTAYLQINNLKNEDTATYFCARYDHAMDYWGQGTSVTVSS
VL: DIVMSQSPSSLAVSAGEKVTMSCKSSQSLLNSGTRKNYLAWYQQKPGQSPKLLIYWTSTRESGVPDRFTGSGSGTDFTLTINSVQAEDLAVYYCKQSYTLYTFGGGTKLEIK
notes: Murine hybridoma mAb; its isotype control is IgG2B; also called mAb 77A
In the case of B1, the binding result in experiment [1] and in experiment [2] was “binds” in each case. For the same molecule, in experiment [3], the “fold greater affinity (KD) than for ATP-enriched HSP70” value was not below 4 fold.
